These results are taken from PMC11215065.

For assay [1], the target named is ULBP1-Fc. Put plainly: SPR; Biacore 3000; biotinylated ULBP1-Fc (1000-2500 RU) on a Neutravidin coated CM5 chip; U20 injected at 0.125-32 μM; CD200 receptor Fc flow cell subtracted; equilibrium fit, one site specific binding, apparent; 20°C. A general note: In SPR one partner is held on a chip, and binding of the other changes the refractive index at the surface.
The target of assay [2] is ULBP1 on transduced HEK293 cells (UniProt Q9BZM6). Put plainly: flow cytometry on cells; ULBP1 (or ULBP3) HEK293 cells pretreated with sU20 at various concentrations for 5 minutes on ice, then stained with 5 nM NKG2D-Fc.
The target of assay [3] is Soluble U20 extracellular domain (sU20) of HHV-6B (HHV-6B). The assay can be described thus: SEC-MALS; EndoH-treated U20 alone; 1 mg/ml, PBS, room temperature.
Assay [4] shares this target. The assay can be described thus: SEC-MALS; U20 with intact high mannose glycans, alone; 1 mg/ml, PBS, room temperature.
In assay [5] the target is ULBP1 on transduced HEK293 cells (UniProt Q9BZM6). Put plainly: flow cytometry on cells; ULBP1 expressing cells pretreated with soluble U20 at various concentrations, then stained with APC conjugated anti-ULBP1 (R&D Systems FAB1380A). In general terms: A flow cytometer gives signals particle by particle.
The target of assay [6] is ULBP1-Fc. The assay can be described thus: SEC-MALS; EndoH-deglycosylated U20 with ULBP1-Fc; 1 mg/ml, PBS, room temperature, WTC-030S5 column. (In gel filtration, larger molecules generally elute earlier.)
Assay [7] has as its target Soluble U20 extracellular domain (sU20) of HHV-6B (HHV-6B). Put plainly: SEC-SAXS; EndoH-treated U20 alone, 4.5 mg/mL, Superdex 200 Increase 5/150 GL in line with SAXS; mass by Porod volume.
For assay [8], the target named is ULBP1-6xHIS soluble construct (ULBP1-6H). Put plainly: SEC-SAXS; equimolar mixture of EndoH-treated U20 and ULBP1-6H, 4.5 mg/mL, Superdex 200 Increase 5/150 GL in line with SAXS.
In the next assay the target is NKG2D-Fc (UniProt P26718). The assay can be described thus: SPR; format not told in the text (Supplementary Figure S1A).

pKd: −log10 of the molar value. Where “and” joins values, the source holds several entries; their conditions need not be identical. Equal entries are not always repeated.

Sequence of Soluble U20 extracellular domain (sU20) of HHV-6B (domain or fragment) (Q9QJ46 16-321 limits assumed): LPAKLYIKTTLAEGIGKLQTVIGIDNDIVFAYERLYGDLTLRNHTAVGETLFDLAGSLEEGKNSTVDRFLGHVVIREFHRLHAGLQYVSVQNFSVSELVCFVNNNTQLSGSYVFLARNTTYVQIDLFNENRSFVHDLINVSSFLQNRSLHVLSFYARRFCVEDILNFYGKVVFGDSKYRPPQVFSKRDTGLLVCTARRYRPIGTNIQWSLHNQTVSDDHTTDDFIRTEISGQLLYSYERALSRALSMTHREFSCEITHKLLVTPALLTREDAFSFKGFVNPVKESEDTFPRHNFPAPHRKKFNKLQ
Sequence of NKG2D-Fc (P26718 73-216): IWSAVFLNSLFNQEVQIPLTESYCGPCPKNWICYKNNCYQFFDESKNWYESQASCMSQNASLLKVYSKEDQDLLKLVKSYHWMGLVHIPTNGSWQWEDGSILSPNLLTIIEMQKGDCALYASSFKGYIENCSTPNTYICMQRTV

For orientation: stoichiometry N means the number of molecules, sites or subunits per partner or assembly. Take “Soluble U20 extracellular domain (sU20) of HHV-6B (domain or fragment)”: the dissociation half-life with ULBP1-Fc [1] was 1.05 min and 2.07 min. Further, the decrease in NKG2D-Fc binding to ULBP1 cells at 5 μM sU20 in assay [2] came out at 90%. Moreover, the stoichiometry N in [3] worked out at 2; in assay [4] it was 2; with ULBP1-Fc [6] it was 1; in assay [7] it was 2; in assay [8], 1. The reduction of anti-ULBP1 antibody binding to ULBP1 cells at 0.125 μM sU20 in assay [5] came to 60%.

Broadly, the pKd is the negative decadic logarithm of the Kd, by convention in mol/L. High values mean a low Kd, low ones a high Kd. Regarding “ULBP1-6xHIS soluble construct (ULBP1-6H) (domain or fragment)”, the pKd with NKG2D-Fc is 6.00.
